Here are results for 1 molecule from US20140199327A1, “METHODS OF PROMOTING DIFFERENTIATION” (Genentech, Inc., priority 2011, published 2014).

Assay [1] addresses T1, USP37-Flag (human USP37 with C-terminal Flag epitope) (human, UniProt Q86T82 1-979, limits assumed).
T1 sequence (looked up): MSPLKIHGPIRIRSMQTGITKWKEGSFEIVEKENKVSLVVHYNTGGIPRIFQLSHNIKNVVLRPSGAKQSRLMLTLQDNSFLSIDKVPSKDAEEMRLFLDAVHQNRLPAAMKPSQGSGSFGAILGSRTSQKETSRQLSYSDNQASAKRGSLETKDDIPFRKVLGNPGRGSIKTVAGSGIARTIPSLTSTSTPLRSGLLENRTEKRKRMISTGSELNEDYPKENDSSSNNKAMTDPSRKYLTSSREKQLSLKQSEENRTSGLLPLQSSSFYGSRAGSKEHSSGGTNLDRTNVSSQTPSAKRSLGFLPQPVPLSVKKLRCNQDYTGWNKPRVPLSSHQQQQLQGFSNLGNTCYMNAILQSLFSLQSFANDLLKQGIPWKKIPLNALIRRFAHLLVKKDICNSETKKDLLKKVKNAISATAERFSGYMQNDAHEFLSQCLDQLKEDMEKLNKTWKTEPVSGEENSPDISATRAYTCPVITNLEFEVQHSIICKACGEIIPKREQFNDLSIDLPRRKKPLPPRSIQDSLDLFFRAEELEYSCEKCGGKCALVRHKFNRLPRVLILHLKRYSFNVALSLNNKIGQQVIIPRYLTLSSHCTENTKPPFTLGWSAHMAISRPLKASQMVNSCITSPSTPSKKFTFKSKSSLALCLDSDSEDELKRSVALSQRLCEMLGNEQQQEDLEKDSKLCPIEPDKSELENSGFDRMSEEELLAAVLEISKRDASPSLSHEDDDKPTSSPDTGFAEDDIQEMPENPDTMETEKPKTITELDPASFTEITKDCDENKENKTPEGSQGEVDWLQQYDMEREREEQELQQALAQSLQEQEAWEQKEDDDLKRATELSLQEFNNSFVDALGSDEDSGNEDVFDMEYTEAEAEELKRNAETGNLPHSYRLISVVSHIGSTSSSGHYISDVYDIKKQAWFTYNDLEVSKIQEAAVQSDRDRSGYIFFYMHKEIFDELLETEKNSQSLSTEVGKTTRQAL
The experiment in a line: Flag immunoprecipitation of DUBs from 293T cells cotransfected with ID2, MG-132 treated (FIG. 2B). How it is done: (§1) FIG. 2. […] (A) Western blot (WB) analysis of 293T transfected with Flag-tagged deubiquitinases (DUBs) or an empty vector (−). Where indicated, cells were treated with […] MG-132 for 4 hr. (B) Flag-tagged DUBs were immunoprecipitated (IP) from 293T cells cotransfected with ID2 and treated with […] MG-132 for 6 hr.

Assay [2] has as its target T2, USP45-Flag (human USP45 with C-terminal Flag epitope) (human, UniProt Q70EL2 1-814, limits assumed).
T2 sequence (looked up): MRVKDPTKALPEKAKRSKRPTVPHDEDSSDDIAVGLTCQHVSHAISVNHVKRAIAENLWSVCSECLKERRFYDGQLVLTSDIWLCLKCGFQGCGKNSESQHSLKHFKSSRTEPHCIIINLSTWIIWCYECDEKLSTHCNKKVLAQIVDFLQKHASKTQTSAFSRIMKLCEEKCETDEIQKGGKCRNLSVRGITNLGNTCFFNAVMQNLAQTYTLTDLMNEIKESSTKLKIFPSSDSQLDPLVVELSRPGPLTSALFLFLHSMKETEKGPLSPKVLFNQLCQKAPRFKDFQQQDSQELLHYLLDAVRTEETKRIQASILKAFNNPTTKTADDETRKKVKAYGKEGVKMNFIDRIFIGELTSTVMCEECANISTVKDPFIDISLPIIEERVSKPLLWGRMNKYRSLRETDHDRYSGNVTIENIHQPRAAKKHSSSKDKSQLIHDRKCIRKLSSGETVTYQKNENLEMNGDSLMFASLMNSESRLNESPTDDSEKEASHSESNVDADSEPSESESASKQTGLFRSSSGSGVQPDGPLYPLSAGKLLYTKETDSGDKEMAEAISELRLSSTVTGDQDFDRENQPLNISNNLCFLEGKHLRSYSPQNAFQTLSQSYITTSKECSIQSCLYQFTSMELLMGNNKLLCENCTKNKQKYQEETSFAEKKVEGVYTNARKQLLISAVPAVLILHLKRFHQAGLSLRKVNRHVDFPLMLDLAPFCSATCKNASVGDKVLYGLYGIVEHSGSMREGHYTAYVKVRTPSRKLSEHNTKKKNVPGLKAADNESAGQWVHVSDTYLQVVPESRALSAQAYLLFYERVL
Described as above. How it is done: as §1

B1: ID2 (co-transfected / co-expressed in 293T cells) (other)
chain: MKAFSPVRSVRKNSLSDHSLGISRSKTPVDDPMSLLYNMNDCYSKLKELVPSIPQNKKVSKMEILQHVIDYILDLQIALDSHPTIVSLHHQRPGQNQASRTPLTTLNTDISILSLQASEFPSELMSNDSKALCG
notes: ID2 was amplified from Jurkat-derived cDNA; The methods describe only a C-terminal Flag version in pRK2001
In the case of B1, the binding result in assay [1] and in assay [2] was “no binding” throughout.
